Experimental findings from US20230211003A1, “CONJUGATE COMPOUNDS FOR PREVENTING AND/OR TREATING HBV AND/OR HDV INFECTIONS, LIVER DISEASES ANDFOR TARGETING NTCP” (priority 2019, published 2023) are described below.

The subject of one experiment is HDV. Kind of experiment: microbe, parasite or virus in culture. In kind it is cell-based, hepatitis D virus (HDV). The source says:
FIG. 3 HBV/HDV infection assay.
Tested were conjugate compounds comprising a truncated variant of Myrcludex B (amino acids 2-21) conjugated with bile acids cholic acid (CA) and ursodeoxy cholic acid (UDCA). They were compared with a control peptide not containing a bile acid moiety, namely HBVpreS/(-11)-21^myr (Genotype B) and the two bile acids CA and UDCA alone.
FIG. 4 HBV/HDV infection assay.
Tested were conjugate compounds comprising a truncated variant of Myrcludex B (amino acids 2-21) conjugated with cholic acid (CA) and a cyclic peptide (also comprising amino acids 2-21) conjugated with ursodeoxy cholic acid (UDCA). They were compared with a control peptide not containing a bile acid moiety, namely HBVpreS/2-21^myr (Genotype B).
FIG. 5 HBV/HDV infection assay of compounds conjugated with bile acid monomers and dimers.
Tested were three compounds: two conjugated with ursodeoxy cholic acid (UDCA) and one with a dimer of ursodeoxy cholic acid (UDCA)2, wherein two comprise amino acids 2-21 of Myrcludex B in a linear form and one as cyclic peptide.
FIG. 7 Infection inhibition of bile acid conjugates with linear peptide sequences Reduction of HDV infection by various bile acid conjugates, control peptides, ursodeoxycholic acid and cholic acid in Huh7-hNTCP cells. The cells were pretreated with the substances for 30 minutes and then co-incubated with the substances and HDV overnight. An in-cell ELISA was carried out five days after infection (n=3).
Reduction of HDV infection by various bile acid conjugates and control peptides in Huh7-hNTCP cells. The cells were pretreated with the substances for 30 minutes and then co-incubated with the substances and HDV overnight. An in-cell ELISA was carried out five days after infection (n=3).
Reduction of HDV infection by a bile acid dimer peptide conjugate bile acid conjugates as compared to the monomeric bile acid conjugates and the control peptides in Huh7-hNTCP cells. The cells were pretreated with the substances for 30 minutes and then coincubated with the substances and HDV overnight. An in-cell ELISA was carried out five days after infection (n=3).
Example 3 HDAg In-Cell ELISA (Huh7-hNTCP
1st Antibody Mouse or rabbit anti HDAg (FD3A7) 1:3000
2nd Antibody: Goat-anti-mouse or goat-anti-rabbit peroxidase conjugated 1:5000
Grow and infect cells in white 96-well plates.
1) Fix cells with 50 μl 4% PFA at RT for 30 min
5) Incubate with 100 μl primary antibody (1:3000) diluted in blocking buffer at RT with shaking for 1 h
9) Incubate with 100 μl 2nd Antibody 1:5000 in blocking buffer at RT with shaking for 1 h.
11) Add 50 μl luminescence substrate (mix according to manufacturer's protocol) and measure at plate reader directly after pipetting.
(Enhanced luciferase protocol, 0.1 s measurement)

Experiment [1] concerns the target human sodium taurocholate co-transporting polypeptide (NTCP/SLC10A1) (human) (UniProt Q14973). Kind of experiment: cell-based or functional assay.
For experiment [2], the target named is T1, human sodium taurocholate co-transporting polypeptide (NTCP/SLC10A1) (human, UniProt Q14973 1-349).
T1 sequence: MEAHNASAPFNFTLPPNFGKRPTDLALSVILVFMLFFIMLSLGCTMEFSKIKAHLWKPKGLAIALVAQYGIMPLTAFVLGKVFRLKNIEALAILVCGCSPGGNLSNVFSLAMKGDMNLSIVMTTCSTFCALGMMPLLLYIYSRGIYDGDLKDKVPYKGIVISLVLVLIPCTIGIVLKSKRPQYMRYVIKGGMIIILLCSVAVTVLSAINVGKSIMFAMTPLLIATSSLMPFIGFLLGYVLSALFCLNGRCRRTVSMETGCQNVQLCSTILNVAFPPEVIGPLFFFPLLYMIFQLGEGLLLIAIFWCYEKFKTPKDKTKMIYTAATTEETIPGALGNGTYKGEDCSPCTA
Kind of experiment: cell-based or functional assay.

Setting [3] is: HDV infection, Huh7-hNTCP cells, in-cell ELISA, FIGS. 3, 4 and 5 (genotype B sequence), read-out: IC50.
[4] abbreviates: experiments of FIGS. 7 and 9, Huh7-hNTCP cells pretreated 30 minutes, co-incubated with HDV overnight, in-cell ELISA five days after infection (n=3), read-out: IC 50.

Where two headings read alike, the source gives them in different places. Square brackets hold non-standard residues; d marks the D form. Ends that are not written are not given here. Peptide text beside a SMILES is read from it. * marks the point of attachment. Ursodeoxycholyl = C[C@H](CCC(=O)*)[C@H]1CC[C@H]2[C@@H]3[C@@H](O)C[C@@H]4C[C@H](O)CC[C@]4(C)[C@H]3CC[C@]12C; Myristoyl = CCCCCCCCCCCCCC(=O)*

Regarding `C[C@H](CCC(=O)O)[C@H]1CC[C@H]2[C@@H]3[C@@H](O)C[C@@H]4C[C@H](O)CC[C@]4(C)[C@H]3CC[C@]12C` [UDCA, ursodeoxycholic acid], the IC50 with HDV (setting [3]) and in the experiment with HDV (setting [4]) was 79000 nM each time. In turn, HBVpreS/2-21myr (consensus) (peptide) gave an IC 50, inhibition of HDV infection of Huh7-hNTCP cells (in-cell ELISA, FIGS. 7 and 9) in experiment [1] of 70.3 nM. As to `CCCCCCCCCCCCCC(=O)NCC(=O)N[C@H](C(=O)N[C@@H](CC(N)=O)C(=O)N[C@@H](CC(C)C)C(=O)N[C@@H](CO)C(=O)N[C@H](C(=O)N1CCC[C@H]1C(=O)N[C@@H](CC(N)=O)C(=O)N1CCC[C@H]1C(=O)N[C@@H](CC(C)C)C(=O)NCC(=O)N[C@@H](Cc1ccccc1)C(=O)N[C@@H](Cc1ccccc1)C(=O)N1CCC[C@H]1C(=O)N[C@@H](CC(=O)O)C(=O)N[C@@H](Cc1c[nH]cn1)C(=O)N[C@@H](CCC(N)=O)C(=O)N[C@@H](CC(C)C)C(=O)N[C@@H](CC(=O)O)C(=O)N1CCC[C@H]1C(N)=O)C(C)C)[C@@H](C)O` [HBVpreS/2-21myr] (Myristoyl-GTNLSVPNPLGFFPDHQLDP-NH2; C-terminus assumed), the IC50 in the experiment with HDV (setting [3]) turned out to be 62.8 nM.

In the experiment on HDV (Hepatitis delta virus), `C[C@H](CCC(=O)O)[C@H]1CC[C@H]2[C@@H]3[C@H](O)C[C@@H]4C[C@H](O)CC[C@]4(C)[C@H]3C[C@H](O)[C@]12C` [CA, cholic acid] gave an IC50 of 115000 nM. In experiment [1], “HBVpreS/2-21myr-(UDCA)2 (genotype B) (peptide)” yielded an IC50, inhibition of HDV infection of Huh7-hNTCP cells (HDAg in-cell ELISA) of 3.55 nM; an IC 50, inhibition of HDV infection of Huh7-hNTCP cells (in-cell ELISA, FIGS. 7 and 9) of 12.7 nM. Molecule “HBVpreS/2-21myr-LCA (genotype B) (peptide)” had an IC 50, inhibition of HDV infection of Huh7-hNTCP cells (in-cell ELISA, FIGS. 7 and 9) in experiment [1] of 7.5 nM.

Take “HBVpreS/2-21myr-UDCA (genotype B) (peptide)”: in experiment [1], the IC50, inhibition of HDV infection of Huh7-hNTCP cells (HDAg in-cell ELISA) was determined as 8.45 nM; the IC 50, inhibition of HDV infection of Huh7-hNTCP cells (in-cell ELISA, FIGS. 7 and 9) was found to be 9.2 nM. Consider `CCCCCCCCCCCCCC(=O)NCC(=O)N[C@H](C(=O)N[C@@H](CC(N)=O)C(=O)N[C@@H](CC(C)C)C(=O)N[C@@H](CO)C(=O)N[C@H](C(=O)N1CCC[C@H]1C(=O)N[C@@H](CC(N)=O)C(=O)N1CCC[C@H]1C(=O)N[C@@H](CC(C)C)C(=O)NCC(=O)N[C@@H](Cc1ccccc1)C(=O)N[C@@H](Cc1ccccc1)C(=O)N1CCC[C@H]1C(=O)N[C@@H](CC(=O)O)C(=O)N[C@@H](Cc1c[nH]cn1)C(=O)N[C@@H](CCC(N)=O)C(=O)N[C@@H](CC(C)C)C(=O)N[C@@H](CC(=O)O)C(=O)N1CCC[C@H]1C(=O)N[C@H](Cc1ccc(O)cc1)C(=O)N[C@@H](CCCCNC(=O)CC[C@@H](C)[C@H]1CC[C@H]2[C@@H]3[C@@H](O)C[C@@H]4C[C@H](O)CC[C@]4(C)[C@H]3CC[C@]12C)C(N)=O)C(C)C)[C@@H](C)O` [HBVpreS/2-21myr-UDCA] (Myristoyl-GTNLSVPNPLGFFPDHQLDP[dY]K(Ursodeoxycholyl)-NH2), for which the IC50 with HDV (setting [4]) came out at 9.2 nM.

In experiment [1], “HBVpreS/2-21myr-CA (genotype B) (peptide)” yielded an IC50, inhibition of HDV infection of Huh7-hNTCP cells (HDAg in-cell ELISA) of 7.27 nM; an IC 50, inhibition of HDV infection of Huh7-hNTCP cells (in-cell ELISA, FIGS. 7 and 9) of 12.5 nM. On to MyrB-UDCA (peptide), for which, in experiment [1], the IC 50, inhibition of HDV infection of Huh7-hNTCP cells (in-cell ELISA, FIGS. 7 and 9) came to 1.5 nM. Turning to Myristoyl-GTNLSVPNPLGFFPDHQLDP [HBVpreS/2-21myr (Genotype B)], in experiment [2], the “IC50, inhibition of HDV infection of Huh7-hNTCP cells (HDAg in-cell ELISA)” value is 62.8 nM.
